Assay results reported in the Human Domainome abundance scans (Beltran et al. 2025).
± gives the uncertainty stated by the source.

B1: Tumor protein p73, residues 487 to 549; numbered along this chain, O15350 (parent)
chain: YHADPSLVSFLTGLGCPNCIEYFTSQGLQSIYHLQNLTIEDLGALKIPEQYRMTIWRGLQDLK

Variants of: B1
Assay: abundance fitness (aPCA) (normalised: wild type 0, dead -1); higher = more abundant; growth selection in yeast, the domain comes from the species named
Conditions: Homo sapiens

Compared with YHADPSMVSFLTGLGCPNCIEYFTSQGLQSIYHLQNLTIEDLGALKIPEQYRMTIWRGLQDLK [L7M], YHADPSPVSFLTGLGCPNCIEYFTSQGLQSIYHLQNLTIEDLGALKIPEQYRMTIWRGLQDLK [L7P] is lower in abundance fitness: -0.023 ± 0.04 for the first, -0.782 ± 0.11 for the second.

First: YHADPSLVSPLTGLGCPNCIEYFTSQGLQSIYHLQNLTIEDLGALKIPEQYRMTIWRGLQDLK [F10P]
Second: YHADPSLVSFLTGLGCPNCIEYFTSQGLQSIYHLQNLTIEDLGALKVPEQYRMTIWRGLQDLK [I47V]
The abundance fitness of the first is lower: -0.748 ± 0.24 for the first, 0.071 ± 0.026 for the second.

Going from YHADPSLVSFLTGLGCPNCIEYFTSQGLQSIYHLQNLTIEDLGALKAPEQYRMTIWRGLQDLK [I47A] to YHADPSLVSFLTGLGCDNCIEYFTSQGLQSIYHLQNLTIEDLGALKIPEQYRMTIWRGLQDLK [P17D], the abundance fitness rises from -0.768 ± 0.075 to -0.044 ± 0.051.

YHADPSLVSFLTGLGCYNCIEYFTSQGLQSIYHLQNLTIEDLGALKIPEQYRMTIWRGLQDLK [P17Y] and YHADPSLVSFLTGLGCPNCIEYFTSQHLQSIYHLQNLTIEDLGALKIPEQYRMTIWRGLQDLK [G27H] are within error of each other in abundance fitness: 0.017 ± 0.063 for the first, -0.004 ± 0.053 for the second.

Compared with YHADGSLVSFLTGLGCPNCIEYFTSQGLQSIYHLQNLTIEDLGALKIPEQYRMTIWRGLQDLK [P5G], YHADPSLVSFLTGLGCPNCIEYFTSQGLVSIYHLQNLTIEDLGALKIPEQYRMTIWRGLQDLK [Q29V] is lower in abundance fitness: 0.134 ± 0.038 for the first, -0.016 ± 0.031 for the second.

Compared with YHADPSLVSFLTGLGCPNCIEYFTSQGLQSIYHLQNLTIEDLGALKIPEQYRMWIWRGLQDLK [T54W], YHADPSLVSFLTGLGCPNCIEYFTSQGLQSIYHLQNLTIEDLGALKIPEQYRMLIWRGLQDLK [T54L] is higher in abundance fitness: -0.142 ± 0.061 for the first, -0.01 ± 0.051 for the second.

SHADPSLVSFLTGLGCPNCIEYFTSQGLQSIYHLQNLTIEDLGALKIPEQYRMTIWRGLQDLK [Y1S] and YHADPSLVSFLTGLGCPNCIEYFTSQGLQSIYHLQNLTIEDLGKLKIPEQYRMTIWRGLQDLK [A44K] are within error of each other in abundance fitness: 0.078 ± 0.05 for the first, 0.057 ± 0.043 for the second.

YHADPSLVSFLTGLGCPNCIEYFTSQGLQSIYHLQNLTIEDLGFLKIPEQYRMTIWRGLQDLK [A44F] and YHADPSLVSFLTGLGCPNCIEYFTSQGLQSIYHLQPLTIEDLGALKIPEQYRMTIWRGLQDLK [N36P] are within error of each other in abundance fitness: 0.011 ± 0.095 for the first, -0.053 ± 0.078 for the second.

Compared with YHADPSLVSFLTGLGAPNCIEYFTSQGLQSIYHLQNLTIEDLGALKIPEQYRMTIWRGLQDLK [C16A], YHADPSLVSFLTGLGCPNCIEYFMSQGLQSIYHLQNLTIEDLGALKIPEQYRMTIWRGLQDLK [T24M] is higher in abundance fitness: -0.176 ± 0.066 for the first, 0.018 ± 0.044 for the second.

Going from YHADPSLVSFLTGLGCPNCIEYFTSQGLQSRYHLQNLTIEDLGALKIPEQYRMTIWRGLQDLK [I31R] to YHADPSLVSFLTGLGCPLCIEYFTSQGLQSIYHLQNLTIEDLGALKIPEQYRMTIWRGLQDLK [N18L], the abundance fitness falls from -0.057 ± 0.033 to -0.139 ± 0.035.

Compared with YHADPSLVSFLTGLGCPNCGEYFTSQGLQSIYHLQNLTIEDLGALKIPEQYRMTIWRGLQDLK [I20G], YHADPSLVSFLTGLGCPNCIEYFTSQGLQSIYHLQNLTIEDLGALKIPSQYRMTIWRGLQDLK [E49S] is higher in abundance fitness: -0.269 ± 0.036 for the first, -0.056 ± 0.037 for the second.

YHADPSLVSFLTGLGCPNCIEYFTSQGLQSIYHLQNLTIEDLGALSIPEQYRMTIWRGLQDLK [K46S] and YHADPSLVSFLTGLGCPNCIEYFTSQGLQSIDHLQNLTIEDLGALKIPEQYRMTIWRGLQDLK [Y32D] are within error of each other in abundance fitness: -0.043 ± 0.033 for the first, 0.03 ± 0.071 for the second.

First: YHADPSLVSFLTGLGCPNCIEYFTSQGLQSIKHLQNLTIEDLGALKIPEQYRMTIWRGLQDLK [Y32K]
Second: YHADPSLVSFLTGLGCPNCIEYFTSQGLQSIYHYQNLTIEDLGALKIPEQYRMTIWRGLQDLK [L34Y]
The abundance fitness of the first is higher: 0.137 ± 0.1 for the first, -0.285 ± 0.14 for the second.

YHADPSLVSFLTGLGCPNCIEYFTSQGLQSIYHAQNLTIEDLGALKIPEQYRMTIWRGLQDLK [L34A] and YHADPSLVSFLTGLGCPNCIEYFTSNGLQSIYHLQNLTIEDLGALKIPEQYRMTIWRGLQDLK [Q26N] are within error of each other in abundance fitness: 0.048 ± 0.039 for the first, 0.109 ± 0.072 for the second.

First: YHADPSLVSFLTGLGCPNCIEYFTSQGLQSIYHLQNLTIEDLGALKIPEQYRMTILRGLQDLK [W56L]
Second: YHADPSLVSFLTGLGCPNCIEYFTSQGLQSIYHLQNLTIEDLGALKIPEQYRMTIGRGLQDLK [W56G]
The abundance fitness of the first is higher: 0.017 ± 0.04 for the first, -0.128 ± 0.035 for the second.

Going from YHADPSLVSFLTGLGCPNCIEYFTSQGLQSIYHLQNLTIEDLGALKIPEQYRMTIWRGLSDLK [Q60S] to YHADPSLVSFLTGLGCPNCIEYFTSQGLQSIYHLQNLTIEDLGALKIPEQYRMTIWRGLEDLK [Q60E], the abundance fitness rises from 0.018 ± 0.036 to 0.101 ± 0.044.

Going from YHADPSLVSFLTGLGCPNCIEYFTSQGLQSIYHLQNLTIEDLGAMKIPEQYRMTIWRGLQDLK [L45M] to YHADPSLVSFLTGLGCPNCIEYFTSQGLQSIYHLQNLTIEDLGAHKIPEQYRMTIWRGLQDLK [L45H], the abundance fitness falls from 0.023 ± 0.038 to -0.45 ± 0.15.

First: YHADPKLVSFLTGLGCPNCIEYFTSQGLQSIYHLQNLTIEDLGALKIPEQYRMTIWRGLQDLK [S6K]
Second: YHADPSLVSFLTGLGCPNCIEYFTSQGLQSIYHLQNLTIEDLEALKIPEQYRMTIWRGLQDLK [G43E]
The abundance fitness of the first is lower: -0.07 ± 0.066 for the first, 0.07 ± 0.061 for the second.

Going from YHADPSLVSFLTGLGCPNCIEYFTSQGLQSIYHLQNLTIEDLGALKIPEQYRSTIWRGLQDLK [M53S] to YHADPSLVSFLTGLGCPNCIEYFTSQGLQSIYHLQNLTIEDLGALKIPEQYRYTIWRGLQDLK [M53Y], the abundance fitness falls from 0.008 ± 0.04 to -0.302 ± 0.16.

YHADPSLVSFLTGLGCPNCIEYFTSQGLQSIYHLQNLTIEDLGALKIPEQYRMTIWRGAQDLK [L59A] and YHADPSLVSFLTGLACPNCIEYFTSQGLQSIYHLQNLTIEDLGALKIPEQYRMTIWRGLQDLK [G15A] are within error of each other in abundance fitness: -0.054 ± 0.054 for the first, -0.124 ± 0.043 for the second.

Compared with YHADPSLMSFLTGLGCPNCIEYFTSQGLQSIYHLQNLTIEDLGALKIPEQYRMTIWRGLQDLK [V8M], YHADPSLVSFLTGLGCPNCIEYFTSQGLQSIYHLQNLTIEDLGALKIPEQYRMTIWRGLQPLK [D61P] is lower in abundance fitness: 0.137 ± 0.04 for the first, -0.092 ± 0.051 for the second.

Variant YHADPSLVSFLTGLGCPNCIEYFTSQGLQSIYHLQNLTIEDLGALKIPEQYRMTIWRGLQKLK [D61K] has an abundance fitness of -0.103 ± 0.047.
